Consider four molecules from patent US20250320284A1 (AC IMMUNE, published 2025).

Assay [1] addresses T1, human ASC (apoptosis associated speck-like protein containing a caspase-recruitment domain) (human, UniProt Q9ULZ3 1-195).
T1 construct: recombinant hASC in ELISA and SPR; endogenous ASC (cytoplasmic or specks) in Western blot and immunofluorescence; also called hASC; PYCARD
In words: ELISA, coated hASC.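 Note: antibody binding to plate-coated recombinant human ASC, read as phosphatase substrate absorbance, EC50 from four-parameter variable-slope fit.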

In assay [2] the target is T2, PYD domain of human ASC (human, UniProt Q9ULZ3 1-91, limits assumed).
T2 construct: biotinylated in BLI; His/MBP-tagged in the alanine ELISA; also called hPYD; human PYD
T2 sequence (Q9ULZ3 1-91 limits assumed): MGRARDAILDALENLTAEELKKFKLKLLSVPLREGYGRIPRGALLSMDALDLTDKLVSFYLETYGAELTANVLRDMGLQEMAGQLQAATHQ
Kind of assay: ELISA, coated hPYD.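 Note: monoclonal antibody binding to plate-coated human ASC PYD measured by ELISA, with a phosphatase substrate absorbance read-out and EC50 from a variable slope curve fit.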

The target of assay [3] is T1, human ASC (apoptosis associated …). Kind of assay: cell-based or functional assay.
Assay [4] shares this target. Kind of assay: cell-based or functional assay. The source holds these as a separate data set.
The target is the same in assay [5]. In words: SPR affinity mode, mAb captured.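 Note: Single-cycle SPR kinetics with mAbs captured on goat anti-mouse antibody, double-referenced against blank flow cell and buffer cycle, fitted by a 1:1 kinetic model.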
The target is the same in assay [6]. Kind of assay: SPR avidity mode, ASC immobilized.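 Note: Single-cycle SPR kinetics on Biacore T200, antibodies injected at 1.2–100 nM (3-fold steps), 300 s association, 900 s dissociation, double-referenced, 1:1 kinetic model fit.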
The target in assay [7] is T2, PYD domain of human ASC. In words: BLI binning on PYD, competitor 22D3A6-AB1.
The target of assay [8] is T2, PYD domain of human ASC. Kind of assay: BLI binning on PYD, competitor 23E5F7-AB2.
The target of assay [9] is T2, PYD domain of human ASC. In words: BLI binning on PYD, competitor 26A1G2-AB1.
In assay [10] the target is T2, PYD domain of human ASC. Kind of assay: BLI binning on PYD, competitor 31F10C5-AB1.
Assay [11] concerns the target T2, PYD domain of human ASC. Kind of assay: BLI binning on PYD, competitor 401H9B7-AB1.
Assay [12] addresses T2, PYD domain of human ASC. Kind of assay: BLI binning on PYD, competitor 416E6G4-AB1.
The target of assay [13] is T2, PYD domain of human ASC. In words: BLI binning on PYD, competitor 2610H7D3-AB1.
The target of assay [14] is T2, PYD domain of human ASC. Kind of assay: BLI binning on PYD, competitor 2617C3A8-AB1.
The target of assay [15] is T2, PYD domain of human ASC. In words: BLI binning on PYD, competitor 2626B9D3-AB1.
In assay [16] the target is T3, CARD domain of human ASC (human, UniProt Q9ULZ3 107-195).
T3 construct: biotinylated in BLI; also called hCARD; human CARD
T3 sequence: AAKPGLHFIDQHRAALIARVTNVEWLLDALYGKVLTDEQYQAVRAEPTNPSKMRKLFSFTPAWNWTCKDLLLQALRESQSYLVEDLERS
In words: sandwich ELISA on MBP-tagged protein captured by anti-MBP antibody, signal as % of hPYD-WT.

The target in assay [17] is T4, mouse ASC (mouse, UniProt Q9EPB4 1-193).
T4 construct: recombinant mASC in ELISA and SPR; endogenous ASC of J774.A1 cells in Western blot and immunofluorescence; also called mASC
T4 sequence: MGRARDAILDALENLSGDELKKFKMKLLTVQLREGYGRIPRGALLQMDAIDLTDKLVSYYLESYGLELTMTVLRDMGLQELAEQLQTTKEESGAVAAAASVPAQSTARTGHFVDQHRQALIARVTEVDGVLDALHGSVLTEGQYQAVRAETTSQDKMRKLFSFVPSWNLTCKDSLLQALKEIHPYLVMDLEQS
In words: ELISA, coated mASC.

Assay [18] addresses T4, mouse ASC. Kind of assay: cell-based or functional assay.
Assay [19] has as its target T4, mouse ASC. In words: cell-based or functional assay. The source holds these as a separate data set.
Assay [20] deals with T4, mouse ASC. In words: SPR affinity mode, mAb captured.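 Note: Single-cycle SPR kinetics with mAbs captured on goat anti-mouse antibody, double-referenced against blank flow cell and buffer cycle, fitted by a 1:1 kinetic model.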
The target in assay [21] is T3, CARD domain of human ASC. Kind of assay: sandwich ELISA on MBP-tagged protein captured by anti-MBP antibody, signal as % of hPYD-WT. This is another data set of the same source.
Assay [22] concerns the target T3, CARD domain of human ASC. The description is as above. This is another data set of the same source.
For assay [23], the target named is T3, CARD domain of human ASC. Kind of assay: ELISA, coated hCARD.
The target in assay [24] is T3, CARD domain of human ASC. In words: BLI binning on CARD, competitor 32B6C7-Ab1.
Assay [25] has as its target T3, CARD domain of human ASC. In words: BLI binning on CARD, competitor 18F4C12-Ab1.
Assay [26] has as its target T3, CARD domain of human ASC. In words: BLI binning on CARD, competitor 2504F3D9-Ab1.
For assay [27], the target named is T3, CARD domain of human ASC. Kind of assay: BLI binning on CARD, competitor 2609F4A9-Ab1.
For assay [28], the target named is T3, CARD domain of human ASC. In words: BLI binning on CARD, competitor 2629E8D1-Ab1.
Assay [29] has as its target T3, CARD domain of human ASC. In words: BLI binning on CARD, competitor 2622E12F11-Ab1.
Assay [30] concerns the target T4, mouse ASC. Kind of assay: SPR affinity mode, steady-state fit, apparent KD.

Where two headings read alike, the source gives them in different places.

B1: ACI-8016-401H9B7-AB1 (antibody, V domains shown)
VH: QIQLVQSGPELKKPGETVKISCKASGYTFTKYGMNWVKQAPGKGLKRMGWINTYTGEPTYSDDFKGRFAFSLETSASTAYLQINNLKNDDTATYFCARLGYANSFDSWGQGTTLTVSS
VL: DIQMTQSPASLSATVGETVTITCRASENIYTYLAWYQQKQGKSPQLLVHNANTLVEGVPSRFSGSGSGTQFSLKINSLEPEDFGNYYCQYHYGSPYTFGGGTKLEIK
As for B1, the EC50 in assay [1] is 100 pM; in assay [2], 60 pM. Also, the “Human ASC polymerization assay, IC50” value in [3] stood at 3100 pM. Besides, in [4], the “IL-1β release, human monocytic cell line, IC50” value (shortened to “IL-1β release”) came to 6940 pM. The Kd in [5] and in [6] was under 10 pM in each case. In addition, the results for the koff in assay [5] and in [6] were under 1e-05 s⁻¹ and 2.3e-07 s⁻¹, respectively. The kon in assay [5] turned out to be 96000 M⁻¹ s⁻¹; in assay [6], 74000 M⁻¹ s⁻¹. In addition, the normalized binding response in assay [7] turned out to be 90%; in [8] it was 83%; in [9] it was 24%; in assay [10], 95%; in assay [11], 3%; in assay [12] it was 47%. Further, the results for the normalized binding response in assay [13], in [14] and in assay [15] were 108%, 112% and 3%, respectively. Besides, the binding result in [16] is “no binding”.

B2: ACI-8016-2610H7D3-AB1 (antibody, V domains shown)
VH: QVQLQQSGVELARPGASVKLSCKASGFSFTSYGISWVKQKTGQGLEWIGQIYLRSSNTYYSEKFKDRATLTADKSSSTVYMELRSLTSEDSAVYFCARYYGSSSDYWGQGTTLTVSS
VL: DIQMNQSPSSLSASLGDTITINCHASQNINVWLSWYQQKPGNIPKVLINQASNLQTDVPTRFSGSGSGTDFKLIISRLQSEDIATYYCQQGQSYPWTFGGGTKLEIK
Consider B2, for which the EC50 in assay [1] was found to be 190 pM; in assay [2] it was 160 pM; in [17], 270 pM. In assay [3], the “Human ASC polymerization assay, IC50” value amounted to 10100 pM. The “Mouse ASC polymerization assay, IC50” value in assay [18] is 60400 pM. Besides, the “IL-1β release” value in assay [4] came to 25200 pM. In addition, in assay [19], the “% IL-1β inhibition, mouse primary microglia, 420 nM mAb” value (shortened to “% IL-1β inhibition”) turned out to be 87.3%. For the same molecule, the Kd worked out at 270 pM in [5] and 410 pM in assay [20]. The values for the koff in assay [5] and in [20] were 0.000201 s⁻¹ and 0.000339 s⁻¹, respectively. For the same molecule, the kon in assay [5] came out at 747000 M⁻¹ s⁻¹; in [20] it was 831000 M⁻¹ s⁻¹. The normalized binding response was found to be 2% in assay [7]; 0% in [8]; 1% in [9]; 2% in assay [10]; 73% in [11]; 6% in assay [12]. Moreover, the figures for the normalized binding response in assay [13], in [14] and in [15] were 1%, 0% and 80%, respectively. For the same molecule, in assay [21], the binding result is “no binding”.

B3: ACI-8016-22D3A6-AB1 (antibody, V domains shown)
VH: QAQLQQSGTELARPGSSVKLSCKASGFTFTIYGINWVKQRTGQGLEWIGEIYPRSGNTYYDEKFKGKATLTADKSTSTAYMELRSLTSEDSAVYFCARSREWEGVFWGQGTLVTVSA
VL: QIVLTQSPAIMSAFPGEKVTITCSATSSVSYMHWFQQKPGTSPKLWIYSTSNLASGVPARFSGSGSGTSHSLTINRMEAEDAATYYCQQRSRYPFTFGSGTKLEIK
notes: also called 936.22D3A6; ACI-8016-22D3A6-AB1_hmG2c
As for B3, the EC50 in assay [1] worked out at 270 pM; in [2], 200 pM; in assay [17], 270 pM. Besides, in [3], the “Human ASC polymerization assay, IC50” value was determined as 4200 pM. Moreover, the “Mouse ASC polymerization assay, IC50” value in assay [18] was found to be 30100 pM. Moreover, in assay [4], the “IL-1β release” value came out at 41100 pM. For the same molecule, the “% IL-1β inhibition” value in assay [19] came to 40%. Moreover, the Kd in assay [5] is 380 pM; in assay [20] it was 1160 pM. Besides, the results for the koff in [5] and in assay [20] were 0.000264 s⁻¹ and 0.00069 s⁻¹, respectively. For the same molecule, the results for the kon in assay [5] and in [20] were 690000 M⁻¹ s⁻¹ and 598000 M⁻¹ s⁻¹, respectively. Further, the normalized binding response in assay [7] turned out to be 2%; in assay [8], 1%; in [9], 0%; in assay [10], 1%; in assay [11] it was 73%; in assay [12] it was 2%. Moreover, the values for the normalized binding response in [13], in [14] and in assay [15] were 3%, 2% and 74%, respectively. Also, the binding result in assay [22] is listed as “no binding”.

B4: ACI-8016-32B6C7-AB1 (antibody, V domains shown)
VH: QVQLQQSDAELVKPGASVKISCKISGYTFTDQTIHWMNQRPEQGLEWIGYIYPGDGSAMYNEKFRGKATLTADKSSSTAYMQLNSLTSEDSAVYFCARPLYSYASYYWFAYWGQGTLVTVSA
VL: DIQMNQSPSSLSASLGDTITITCHASQNINVWLSWYQRKPGNIPKLLIYKSSNLHTGVPSRFSGSGSGTGFTLTISSLQPEDIATYYCQQGQSYPLTFGGGTKLEIK
notes: also called 936.32B6C7
Regarding B4, the EC50 is 140 pM in assay [1], 140 pM in assay [17] and 110 pM in assay [23]. Further, the binding result in [2] is reported as “no binding”. The “Human ASC polymerization assay, IC50” value in [3] amounted to 12100 pM. Moreover, the “IL-1β release” value in assay [4] was determined as 14000 pM. Besides, in assay [19], the “% IL-1β inhibition” value came to 66.7%. Besides, the Kd in assay [5] is 1060 pM; in assay [30] it was 36900 pM. Moreover, in assay [5], the koff was found to be 0.000201 s⁻¹. In [5], this molecule yielded a kon of 192000 M⁻¹ s⁻¹. Moreover, the normalized binding response in assay [24] was 0%; in assay [25], 97%; in assay [26] it was -3%; in assay [27] it was -3%; in assay [28], -2%; in assay [29], 106%.
